T1: human TIM-1-Fc (extracellular domain of human TIM-1, residues 1-290, attached to the Fc portion of human IgG1) (human, UniProt Q96D42 21-290)
T1 construct: also called TIM-1-Ig; human TIM1-Ig; not shown: Fc portion of human IgG1
T1 sequence: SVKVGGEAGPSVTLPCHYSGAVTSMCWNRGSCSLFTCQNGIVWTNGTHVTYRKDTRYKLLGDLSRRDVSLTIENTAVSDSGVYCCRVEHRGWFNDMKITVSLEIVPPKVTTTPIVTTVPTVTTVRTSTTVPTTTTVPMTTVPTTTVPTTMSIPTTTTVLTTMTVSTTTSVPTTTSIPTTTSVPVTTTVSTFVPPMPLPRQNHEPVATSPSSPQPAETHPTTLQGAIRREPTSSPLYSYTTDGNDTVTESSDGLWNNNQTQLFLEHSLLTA

T2: cynomolgus monkey TIM-1-Fc (cynomolgus monkey TIM-1 extracellular domain expressed as an Fc fusion protein) (Cynomolgus monkey (Macaca fascicularis))
T2 construct: also called cyno.TIM1; not shown: Fc part
T2 chain: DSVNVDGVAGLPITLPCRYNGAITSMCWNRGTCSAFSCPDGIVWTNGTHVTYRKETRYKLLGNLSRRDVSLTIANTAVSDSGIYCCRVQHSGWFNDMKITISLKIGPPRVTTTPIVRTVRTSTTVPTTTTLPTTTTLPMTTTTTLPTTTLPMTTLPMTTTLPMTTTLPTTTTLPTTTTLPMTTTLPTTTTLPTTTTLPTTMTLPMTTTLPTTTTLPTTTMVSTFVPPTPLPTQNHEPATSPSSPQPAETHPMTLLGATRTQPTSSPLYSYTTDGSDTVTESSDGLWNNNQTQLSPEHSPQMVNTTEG

T3: human TIM-1 expressed on cells (human, UniProt Q96D42 21-364)
T3 construct: Full-length human TIM-1 on transfected (HEK 293T, 293E, JUN2 Jurkat) or constitutively expressing (769-P) cells; also called HAVCR1; KIM-1
T3 sequence: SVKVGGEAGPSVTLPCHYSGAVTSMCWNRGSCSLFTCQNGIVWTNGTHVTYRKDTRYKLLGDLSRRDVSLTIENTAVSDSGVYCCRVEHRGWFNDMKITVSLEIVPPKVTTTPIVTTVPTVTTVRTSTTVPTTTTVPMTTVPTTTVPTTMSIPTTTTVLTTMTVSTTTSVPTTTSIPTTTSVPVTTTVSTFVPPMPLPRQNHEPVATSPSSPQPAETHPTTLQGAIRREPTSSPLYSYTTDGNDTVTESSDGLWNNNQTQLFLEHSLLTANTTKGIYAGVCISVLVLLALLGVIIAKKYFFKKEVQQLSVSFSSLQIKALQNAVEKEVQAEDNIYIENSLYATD

T4: Cynomolgus monkey TIM-1 expressed on transfected 293E cells (Cynomolgus monkey (Macaca fascicularis), UniProt O46598 25-478 (Chlorocebus aethiops entry))
T4 construct: Full-length cDNA (pEAG2184) transfected into 293E cells; also called Cynomolgus TIM-1
T4 chain: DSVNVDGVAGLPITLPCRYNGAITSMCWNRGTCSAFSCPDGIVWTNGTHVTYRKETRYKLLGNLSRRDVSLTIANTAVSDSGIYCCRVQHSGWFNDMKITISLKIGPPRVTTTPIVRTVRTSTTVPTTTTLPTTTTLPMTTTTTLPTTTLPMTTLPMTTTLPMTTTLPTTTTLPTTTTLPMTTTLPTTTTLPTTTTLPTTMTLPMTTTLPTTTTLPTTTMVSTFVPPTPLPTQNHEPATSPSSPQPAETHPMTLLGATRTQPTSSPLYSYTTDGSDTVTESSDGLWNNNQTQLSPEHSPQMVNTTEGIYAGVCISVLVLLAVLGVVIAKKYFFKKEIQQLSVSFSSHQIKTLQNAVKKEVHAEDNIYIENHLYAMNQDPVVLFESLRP

B1: monoclonal antibody ARD5 (antibody, mouse IgG1, kappa, V domains shown)
VH: QVQLQQSGAELVRPGTSVKVSCKASGYVFTNYWIEWIKQRPGQGLEWIGVMNPGSGETTYNEKFKGKATLTADKSSSTAYMQLSSLTSVDSAVYFCARDHDRDYYAMDYWGQGTSVTVSS
VL: EIQMTQSPSSMSASLGDTITITCQATQDIFKNLNWYQQKPGKPPSLLIYYATELAEGVPSRFSGSGSGSDYSLTISNLESEDFAAYYCLQFFEFPFTFGSGTKLEMKR
notes: Murine IgG1/kappa hybridoma antibody (ATCC PTA-12195); also called ARD5.12; muARD5
B2: FAb fragment of ARD5 (Fab, V domains shown)
VH: QVQLQQSGAELVRPGTSVKVSCKASGYVFTNYWIEWIKQRPGQGLEWIGVMNPGSGETTYNEKFKGKATLTADKSSSTAYMQLSSLTSVDSAVYFCARDHDRDYYAMDYWGQGTSVTVSS
VL: EIQMTQSPSSMSASLGDTITITCQATQDIFKNLNWYQQKPGKPPSLLIYYATELAEGVPSRFSGSGSGSDYSLTISNLESEDFAAYYCLQFFEFPFTFGSGTKLEMKR
notes: Fab purified from the ARD5 monoclonal antibody; also called FAb of ARD5; not shown: murine IgG1 CH1 and part of the hinge

Experiments:
[1] = target: T1, human TIM-1-Fc (extracellular domain of …); test: SPR (Biacore), human TIM-1-Fc
[2] = target: T1, human TIM-1-Fc (extracellular domain of …); test: ELISA, plates coated with human TIM-1-Fc
Procedure: (§1) In the second assay, an ELISA format was used to measure the relative affinity of three anti-TIM-1 monoclonal antibodies for human TIM-1. Titration curves were derived for each antibody and EC50 values were calculated from the curves. Briefly, ELISA plates (Corning Costar) were coated with 0.2 μg/ml human TIM-1-Fc overnight at 4° C. and then blocked for 1 hour at 22° C. with PBS/0.5% casein. Plates were thoroughly washed with PBS/0.1% Tween-20. Anti-human TIM-1 monoclonal antibodies were added across a range of concentrations starting at 10 μg/ml and using 1:3 dilutions, all in PBS/0.5% casein, and allowed to incubate for 1 hour at 22° C. The plates were washed again, and then a 1:1000 dilution of HRP-conjugated goat anti-mouse IgG (H+L; Jackson Immunoresearch Laboratories) was added in PBS/0.5% casein for an additional hour at 22° C. After a final wash, the plates were developed using substrate solution mix (R&D Systems) and stopped using 2N H2SO4. Plates were read at 450 nm using a microplate reader and analyzed using SoftMax Pro (Molecular Devices). Relative EC50 values were determined from the binding curves.

[3] = target: T2, cynomolgus monkey TIM-1-Fc (cynomolgus …); test: SPR (Biacore), cynomolgus monkey TIM-1-Fc
[4] = target: T1, human TIM-1-Fc (extracellular domain of …); test: ELISA-1, plates coated with 2 µg/ml human TIM-1-Fc
Procedure: as §1, with “Briefly, ELISA plates (Corning Costar) were coated with 0.2 μg/ml human TIM-1-Fc overnight at 4° C. and then blocked for 1 hour at 22° C. with PBS/0.5% casein.” left out
The cynomolgus monkey TIM-1 extracellular domain was expressed as an Fc fusion protein, purified, and used in the ELISA format described above for binding monoclonal antibodies to the human TIM-1 protein. […] The resulting titration curves were used to derive a relative EC50 for anti-human TIM-1 monoclonal antibody binding to human TIM-1 and cynomolgus monkey TIM-1 (Table 2, ELISA-2).

[5] = target: T1, human TIM-1-Fc (extracellular domain of …); test: ELISA-2, plates coated with 0.2 µg/ml human TIM-1-Fc
Procedure: as §1
(§2) The cynomolgus monkey TIM-1 extracellular domain was expressed as an Fc fusion protein, purified, and used in the ELISA format described above for binding monoclonal antibodies to the human TIM-1 protein. […]

[6] = target: T2, cynomolgus monkey TIM-1-Fc (cynomolgus …); test: ELISA-1, plates coated with 2 µg/ml cynomolgus monkey TIM-1-Fc
Procedure: as §1, §2

[7] = target: T2, cynomolgus monkey TIM-1-Fc (cynomolgus …); test: ELISA-2, plates coated with 0.2 µg/ml cynomolgus monkey TIM-1-Fc
Procedure: as §1, §2

[8] = target: T3, human TIM-1 expressed on cells; test: flow cytometry on JUN2 cells (Jurkat stably expressing human TIM-1), PE anti-mouse IgG, MFI against µg/ml of mAb
Procedure: (§3) Three assays were used to assess the affinity of ARD5 for human TIM-1. In the first assay, ARD5 binding to cells expressing TIM-1 was measured by Flow Cytometry. Two cell lines were used. JUN2 cells are a stable human Jurkat TIM-1-expressing cell line (described in Binne et al. (2007) J. Immunol. 178: 4342-50). The human kidney cell line 769-P also constitutively expresses TIM-1. JUN2 cells and 769-P cells were cultured in RPMI/10% FBS. JUN2 cells grow in suspension; 769-P cells are adherent and were gently removed with Accutase (Invitrogen). Cells were resuspended in PBS/5% BSA and incubated with monoclonal antibodies for 1 hour on ice. Following several washes with PBS/5% BSA, the cells were resuspended in the same buffer containing PE-coupled donkey anti-mouse IgG secondary antibody (Jackson Immunoresearch). Following an additional wash in PBS/5% BSA and a final wash in PBS, cell were resuspended in 100 ul PBS and fixed in an equal volume of 2% paraformaldehyde. Monoclonal antibody binding was analyzed using a flow cytometer (FACScan).

[9] = target: T3, human TIM-1 expressed on cells; test: flow cytometry on 769-P cells (constitutively expressing human TIM-1), PE anti-mouse IgG, MFI against µg/ml of mAb
Procedure: as §3

[10] = target: T4, Cynomolgus monkey TIM-1 expressed on …; test: flow cytometry on 293E cells transfected with Cynomolgus monkey TIM-1 cDNA, gated on EGFP-positive cells, PE anti-mouse IgG
Procedure: In a second series of experiments, 293E cells transfected with human TIM-1 cDNA or Cynomolgus monkey TIM-1 cDNA were analyzed for anti-human TIM-1 monoclonal antibody binding by flow cytometry. The full-length human and cynomolgus monkey TIM1 cDNAs were engineered to remove extraneous 5′ and 3′ UTRs and to add an identical optimized Kozak sequence, then were subcloned into pNE001, a fully sequence-confirmed pUC-based EBV expression vector derived from the Invitrogen expression vector pCEP4, in which heterologous gene expression is controlled by a CMV-IE promoter and an SV40 polyadenylation signal, but lacking the EBNA gene and the hygromycin resistance gene. TIM-1 expression vectors (human: pEAG2182, and cynomolgus monkey: pEAG2184) were co-transfected into 293E cells at a 1:1 molar ratio with an EBV expression vector carrying an EGFP reporter (pEAG1458). Cells were transfected using Qiagen's Effectene reagent, following the manufacturer's recommended protocol. Cells were used in FACS at 2 days post-transfection, staining with a dilution titration series of murine anti-human TIM1 monoclonal antibodies, (detected with PE-conjugated goat anti-mouse IgG secondary antibody) and gating on green EGFP-positive living cells. […]

[11] = target: T1, human TIM-1-Fc (extracellular domain of …); test: SPR (Biacore), monovalent binding to immobilized human TIM-1

Row | Binder | Kd [1] [nM] | EC50 [2] [µg/mL] | relative EC50 against A6G2 and A3H1 (percent greater) [2] [%] | Kd [3] [nM] | EC50 [4] [µg/mL] | EC50 [5] [µg/mL] | EC50 [6] [µg/mL] | EC50 [7] [µg/mL] | EC50 (read off the curve) [8] [µg/mL] | EC50 (read off the curve) [9] [µg/mL] | binding result [10] | Kd [11] [nM]
1 | B1 | ≤ 0.6 | 0.00078 | 80.5 | < 50 | 0.001 | 0.043 | 0.002 | 0.013 | ~0.1 | ~0.2 | binds | 
2 | B2 |  |  |  |  |  |  |  |  |  |  |  | 3
